Measured values taken from patent publication US9340577B2, “HLA binding motifs and peptides and their uses” (priority 1992, dated 2016).
No end group written: not given here.

Key:
HLA-A1 (A*0101) = HLA-A1 (A*0101) (Homo sapiens, UniProt P04439, A114D/A174V/A182V/D101N/D185E/E176A/E190D/L180R/Q94H/R68K/S129P/T187R/V100A/V91M/W191G); experiment: biochemical; assay type: binding
A2.1 HLA molecules = A2.1 HLA molecules (Homo sapiens, UniProt P04439, D140Y/D185E/D98H/E176V/E277Q/G131W/G231S/I119V/I121R/I166T/I218V/L300P/L318F/N151K/N90K/P208A/P217A/Q86G/Q94H/R138H/R169H/T345S); assay type: binding; parameters: A*0201 / A2.1 Binding / A2 Bind. / A2 / A2.1 (binding capacity): scale not given here
A31 (A*3101) = A31 (A*3101) (Homo sapiens, UniProt P04439, A270S/D185E/E176V/E277Q/F33T/G231S/G80R/H175R/I121M/I218V/I322F/K168Q/L300P/L318F/M331R/P217A/Q94H/R138Q/T323A/T345S/T97I/V358M); experiment: biochemical; assay type: binding
A*6801 = A*6801 (Homo sapiens, UniProt P04439, A269V/D185E/E176V/E277Q/E87N/F33Y/G231S/I121M/I166T/I218V/L180W/L300P/L318F/N151K/P208A/P217A/Q86R/R169H/T345S); experiment: biochemical; assay type: binding
HLA-A3.2 (A*0301) = HLA-A3.2 (A*0301) (Homo sapiens, UniProt P04439); experiment: biochemical; assay type: binding
A*3301 = A*3301 (Homo sapiens, UniProt P04439, A270S/D185E/E176V/E277Q/E87N/F33T/G231S/H175R/I121M/I218V/I322F/K168Q/K210R/L300P/L318F/M331R/P217A/Q86R/Q94H/R138Q/T323A/T345S/T97I/V358M/Y195H); experiment: biochemical; assay type: binding
DRB1*0405 = DRB1*0405 (Homo sapiens, UniProt P01903+P01911, A100R/A169T/D86S/F76Y/I96L/K127E/L162R/M171V/N62H/P40V/Q125Y/R42H/S133A/S149N/S66Y/V115G/V209L/W38E); experiment: biochemical; assay type: binding
DR1 (DRB1*0101) = DR1 (DRB1*0101) (Homo sapiens, UniProt P01903+P01911, A100R/D57E/F55L/F60I/F76Y/I96L/L162R/M171V/P40L/Q125E/R42F/V115G/Y59C); experiment: biochemical; assay type: binding
DRB1*0901 = DRB1*0901 (Homo sapiens, UniProt P01903+P01911, A100R/A103E/D57H/D86V/F55Y/F60I/F76Y/I96F/K127E/L162R/M171V/P40D/Q125H/Q99R/R33Q/R42F/S133A/S66N/T210M/V115G/W38K/Y107V/Y59G/Y89S); experiment: biochemical; assay type: binding
DRB1*1501 = DRB1*1501 (Homo sapiens, UniProt P01903+P01911); experiment: biochemical; assay type: binding
DRB5*0101 = DRB5*0101 (Homo sapiens, UniProt P01903+Q30154); experiment: biochemical
DRB1*1101 = DRB1*1101 (Homo sapiens, UniProt P01903+P01911, A100R/A169T/A87E/I96F/K41T/L162R/M171V/P40S/Q125H/Q178H/Q39Y/Q99D/R42S/S66Y/T262R/V115G/W38E); experiment: biochemical
DR7 (DRB1*0701) = DR7 (DRB1*0701) (Homo sapiens, UniProt P01903+P01911, A100R/A102G/A103Q/D57E/D86V/E43K/F76Y/K127E/L162R/M171V/P40G/Q125H/Q99D/R33Q/R42Y/R54Q/S133A/S66F/T210M/V115G/Y107V/Y59L/Y89S); experiment: biochemical; assay type: binding
DRB1*0802 = DRB1*0802 (Homo sapiens, UniProt P01903+P01911, A100R/A103L/A169T/F76Y/H45Y/I96F/K41T/L162R/M171V/P40S/Q125H/Q178H/Q39Y/Q99D/R218S/R42G/S66Y/V115G/W38E); experiment: biochemical; assay type: binding
DRB1*1302 = DRB1*1302 (Homo sapiens, UniProt P01903+P01911, A100E/A169T/K41T/L162R/M171V/P40S/Q125H/Q178H/Q39Y/Q99D/R42S/S66N/T262R/V115G/W38E/Y61H); experiment: biochemical; assay type: binding
DRB1*1302, sequence (P01903 26-254 limits assumed, other chains not shown): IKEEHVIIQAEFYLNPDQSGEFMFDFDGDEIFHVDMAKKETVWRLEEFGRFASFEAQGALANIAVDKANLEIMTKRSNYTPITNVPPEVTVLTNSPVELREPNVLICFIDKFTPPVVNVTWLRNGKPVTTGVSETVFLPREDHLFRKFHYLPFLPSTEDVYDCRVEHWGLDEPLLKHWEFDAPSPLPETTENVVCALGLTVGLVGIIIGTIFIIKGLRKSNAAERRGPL

DRB1*1101, sequence (P01903 26-254 limits assumed, other chains not shown): as above

| Sequence | A1 (HLA-A1 (A*0101)) | A2 Bind. (A2.1 HLA molecules) | further results |
| --- | --- | --- | --- |
| ALFLGFLGA | 0.0945 | 0.0945 | – |
| ALFLGFLGAA | 0.4950 | 0.4950 | – |
| ALLYKLDIV | 0.0362 | 0.0362 | – |
| ALTVVWLLV | 0.0390 | 0.0390 | – |
| AVLSIVNRV | 0.0132 | 0.0132 | – |
| CVSHRGLYY [Peptide 88.0401] | – | – | IC50 (HLA-A1 (A*0101)): 0.108 µM; IC50 (A31 (A*3101)): > 20 µM; IC50 (A*6801): > 20 µM; IC50 (HLA-A3.2 (A*0301)): 0.027 µM; IC50 (A*3301): > 20 µM |
| FIMIVGGLV | 0.0131 | 0.0131 | – |
| FLAIIWVDL | 0.0233 | 0.0233 | – |
| FLGAAGSTM | 0.0190 | 0.0190 | – |
| FLYGALLL | 0.0345 | 0.0345 | – |
| FLYGALLLA | 1.9000 | 1.9000 | – |
| FMIAATYNFAV | 0.4950 | 0.4950 | – |
| GLLECCARCLV | 0.0515 | 0.0515 | – |
| GLVGLRIVFA | 0.0195 | 0.0195 | – |
| HMLQLTVWGI | 0.0677 | 0.0677 | – |
| IAATYNFAV | 0.0540 | 0.0540 | – |
| IISLWDQSL | 0.0179 | 0.0179 | – |
| IKFFQGSVISFVNSQ [Peptide 89.0136] | – | – | IC50 (DRB1*0405): > 20 µM; IC50 (DR1 (DRB1*0101)): > 20 µM; IC50 (DRB1*0901): > 20 µM; IC50 (DRB1*1501): > 20 µM; IC50 (DRB5*0101): 5.5 µM; IC50 (DRB1*1101): > 20 µM; IC50 (DR7 (DRB1*0701)): > 20 µM; IC50 (DRB1*0802): > 20 µM; IC50 (DRB1*1302): 0.011 µM |
| IMIVGGLVGL | 0.0252 | 0.0252 | – |
| LLGRRGWEV | 0.0142 | 0.0142 | – |
| LLIAARIVEL | 0.1550 | 0.1550 | – |
| LLNATDIAV | 0.0607 | 0.0607 | – |
| LLNATDIAVA | 0.0117 | 0.0117 | – |
| LLQYWSQEL | 0.0265 | 0.0265 | – |
| LLVFACSAV | 0.0107 | 0.0107 | – |
